The results in this text go back to US20120214208.

One data set relates to T4 DNA ligase (phage T4). Particulars: transformation assay after 16 C 60 min; no-ligase control 4.
The test system of data set [1] is p50-ligase (NF-kappaB p50 40-366 fused to N-terminus of T4 DNA ligase) (Homo sapiens / phage T4 fusion). Particulars: transformation assay; no-ligase control 4.
Data set [2] has as its system ligase-PprA (phage T4 / Deinococcus radiodurans fusion). Particulars: transformation assay; no-ligase control 4.

For the substance “pCA24N-ompC HindIII/SpeI vector (5032 bp) and insert (1311 bp)”, the activity in the data set on T4 DNA ligase (phage T4) was found to be 47 colonies; in data set [1], 17 colonies; in data set [2], 53 colonies.
